Experimental data: article PMC7463553, “Thiol Redox Regulation of Plant β-Carbonic Anhydrase” (Biomolecules, 2020)

Biological target: the molecule itself
Experiment: dynamic light scattering; 320 µM βCA1 after addition of 20 mM DTT or in the presence of 500 µM H2O2; 50 mM Na-phosphate pH 8; 25 °C; intensity converted to volume percentage

B1: β-carbonic anhydrase 1 (βCA1) from Arabidopsis thaliana (enzyme, UniProt P27140 114-347, looked up)
chain: ALQTGTSSDKKAFDPVETIKQGFIKFKKEKYETNPALYGELAKGQSPKYMVFACSDSRVCPSHVLDFQPGDAFVVRNIANMVPPFDKVKYGGVGAAIEYAVLHLKVENIVVIGHSACGGIKGLMSFPLDGNNSTDFIEDWVKICLPAKSKVISELGDSAFEDQCGRCEREAVNVSLANLLTYPFVREGLVKGTLALKGGYYDFVKGAFELWGLEFGLSETSSVKDVATILHWKL
notes: β-carbonic anhydrase 1 (βCA1, βCA1.1), Arabidopsis thaliana, UniProt P27140, At3g01500; The protein was analysed both reduced (DTT) and oxidised (H2O2); also called βCA1.1; chloroplast βCA; source: E. coli NiCo21 (DE3), purified (passage through a chitin column, Ni-NTA beads, dialysis)
  stoichiometry N: 2
